Here are results for two substances from paper PMC4924701.

The assay deals with GADS (UniProt O75791). Briefly: anti-FLAG co-IP, Western blot. Particulars: reference: wild-type FLT3. (Immunoblotting shows a protein as a band on a membrane.)

For FLT3 (from UniProt P36888) FLT3-Y955F, the “binding against the reference” value (sites Y955) is listed as “weaker”.
Regarding “FLT3 (from UniProt P36888) FLT3-Y955F-Y969F”, the “binding against the reference” value (sites Y955,Y969) is listed as “lost”.
